Measurements published in patent US20140030266A1.

Experiments:
[1] = molecular target: MIF receptor CD74 ectodomain (CD74 73-232, sCD74) (UniProt P04233); assay: SPR (BIAcore 2000), sCD74 immobilized
[2] = molecular target: MIF receptor CD74 ectodomain (CD74 73-232, sCD74) (UniProt P04233); assay: SPR (BIAcore 2000), sCD74 immobilized, ligand in solution
[3] = molecular target: MIF receptor CD74 ectodomain (CD74 73-232, sCD74) (UniProt P04233); assay: competition binding assay on sCD74, biotinylated human MIF as competitor
[4] = molecular target: MIF receptor CD74 ectodomain (CD74 73-232, sCD74) (UniProt P04233); assay: competition binding assay on sCD74 with biotinylated human MIF as the competed ligand [panel A]

## human D-dopachrome tautomerase (D-DT), recombinant native-sequence protein (from UniProt P30046 2-118) (ligand)
[1]
  affinity relative to MIF (% lower than MIF): 60
  fold higher binding rate than MIF: 3 fold
  koff: 0.00066 s⁻¹
  kon: 120000 M⁻¹ s⁻¹
[2]
  Kd: 5.42 nM
[3]
  maximal effect on MIF binding compared with MIF: 50%
[4]
  IC50 (read off the curve): 0.3 µM
